Laboratory results reported in patent publication US20150368353A1.

Target: podoplanin on human brain tumor cells (glioblastoma and medulloblastoma cells and xenografts) (human) (UniProt Q86YL7)
Assay: cell-based or functional assay

Q: With dsNZ-1-PE38KDEL immunotoxin (scFv) as the substance, how does the IC50 of cytotoxicity (inhibition of protein synthesis, 3H-leucine incorporation) read?
A: The IC50 of cytotoxicity (inhibition of protein synthesis, 3H-leucine incorporation) was 0.5 to 6.9 ng/mL.
